Positions count from the first letter of the chain named. Names and notes keep the numbering of the source. Like-named read-outs stand apart in the source and are kept apart here.
B1: A51C (designed binder)
chain: SMEEEVEKAAKEYEKKKKEAIEKHLEKLKAKDKEAAERFLKELEEAAKEYCKDEAKTMSEEEAKRRAKKYKEKVLLSELSEEEQKEIKEAEEKLVRTILKYVEEAAK
B2: R96D (designed binder)
chain: B1 chain with C51A, R96D
B3: E45C (designed binder)
chain: B1 chain with E45C, C51A
B4: S77Q (designed binder)
chain: B1 chain with C51A, S77Q
B5: L43V (designed binder)
chain: B1 chain with L43V, C51A
B6: L40R (designed binder)
chain: B1 chain with L40R, C51A
B7: H24W (designed binder)
chain: B1 chain with H24W, C51A
B8: E19T (designed binder)
chain: B1 chain with E19T, C51A
B9: E60V (designed binder)
chain: B1 chain with C51A, E60V
B10: Y13D (designed binder)
chain: B1 chain with Y13D, C51A
B11: E91P (designed binder)
chain: B1 chain with C51A, E91P
B12: R38M (designed binder)
chain: B1 chain with R38M, C51A
B13: K15L (designed binder)
chain: B1 chain with K15L, C51A
B14: T97S (designed binder)
chain: B1 chain with C51A, T97S
B15: E5N (designed binder)
chain: B1 chain with E5N, C51A
B16: Y101N (designed binder)
chain: B1 chain with C51A, Y101N
B17: K15T (designed binder)
chain: B1 chain with K15T, C51A
B18: K16V (designed binder)
chain: B1 chain with K16V, C51A
B19: E7L (designed binder)
chain: B1 chain with E7L, C51A
B20: F39H (designed binder)
chain: B1 chain with F39H, C51A
B21: V74K (designed binder)
chain: B1 chain with C51A, V74K
B22: V6K (designed binder)
chain: B1 chain with V6K, C51A
B23: A90Y (designed binder)
chain: B1 chain with C51A, A90Y
B24: A51R (designed binder)
chain: B1 chain with C51R
B25: Q84P (designed binder)
chain: B1 chain with C51A, Q84P
B26: A51E (designed binder)
chain: B1 chain with C51E
B27: Y101I (designed binder)
chain: B1 chain with C51A, Y101I
B28: K31P (designed binder)
chain: B1 chain with K31P, C51A
B29: E7D (designed binder)
chain: B1 chain with E7D, C51A
B30: E45R (designed binder)
chain: B1 chain with E45R, C51A
B31: E103K (designed binder)
chain: B1 chain with C51A, E103K
B32: E104S (designed binder)
chain: B1 chain with C51A, E104S
B33: Y50F (designed binder)
chain: B1 chain with Y50F, C51A
B34: V102E (designed binder)
chain: B1 chain with C51A, V102E
B35: A10Y (designed binder)
chain: B1 chain with A10Y, C51A
B36: H24F (designed binder)
chain: B1 chain with H24F, C51A
B37: E22K (designed binder)
chain: B1 chain with E22K, C51A
B38: K93R (designed binder)
chain: B1 chain with C51A, K93R
B39: R96C (designed binder)
chain: B1 chain with C51A, R96C
B40: K56Y (designed binder)
chain: B1 chain with C51A, K56Y
B41: E82R (designed binder)
chain: B1 chain with C51A, E82R
B42: A63E (designed binder)
chain: B1 chain with C51A, A63E
B43: D65H (designed binder)
chain: MTLQELLREEALRRAEAEAFRYALELLAEKFPEQKEYLLDLAEEIESQIRSLSGVDVEDVRKFLHKEWAWVKELLAEHPAELAEVEAARAARLAELRAEVEAKVAA
B44: V104G (designed binder)
chain: B43 chain with H65D, V104G
B45: R61I (designed binder)
chain: B43 chain with R61I, H65D
B46: Y37M (designed binder)
chain: B43 chain with Y37M, H65D
B47: E77Q (designed binder)
chain: B43 chain with H65D, E77Q
B48: R13F (designed binder)
chain: B43 chain with R13F, H65D
B49: E73C (designed binder)
chain: B43 chain with H65D, E73C
B50: E84I (designed binder)
chain: B43 chain with H65D, E84I
B51: F63L (designed binder)
chain: B43 chain with F63L, H65D
B52: E9K (designed binder)
chain: B43 chain with E9K, H65D
B53: D40H (designed binder)
chain: B43 chain with D40H, H65D
B54: A106W (designed binder)
chain: B43 chain with H65D, A106W
B55: D59F (designed binder)
chain: B43 chain with D59F, H65D
B56: E95F (designed binder)
chain: B43 chain with H65D, E95F
B57: E9D (designed binder)
chain: B43 chain with E9D, H65D
B58: I45E (designed binder)
chain: B43 chain with I45E, H65D

How the values were obtained:
TNFR1 [1] = biological target: T1, TNFR1 (Homo sapiens, UniProt P19438); assay: yeast display SC50
T1 chain: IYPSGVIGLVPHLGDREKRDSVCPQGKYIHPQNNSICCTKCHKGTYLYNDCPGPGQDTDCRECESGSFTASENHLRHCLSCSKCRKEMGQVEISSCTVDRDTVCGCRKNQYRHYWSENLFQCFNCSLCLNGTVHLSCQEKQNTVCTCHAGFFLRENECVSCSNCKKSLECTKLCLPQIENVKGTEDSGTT

TNFR1 [2] = biological target: T1, TNFR1; assay: yeast display SC50

Binder	apparent Kd (screen) (TNFR1 [1]) [nM]	apparent Kd (screen) (TNFR1 [2]) [nM]
B1	0.446	–
B2	10.4	–
B3	1.27	–
B4	1.27	–
B5	0.869	–
B6	0.49	–
B7	0.869	–
B8	0.49	–
B9	0.446	–
B10	12.5	–
B11	1.54	–
B12	0.869	–
B13	0.49	–
B14	2.25	–
B15	0.539	–
B16	0.446	–
B17	0.653	–
B18	1.05	–
B19	11.4	–
B20	4.39	–

Binder	apparent Kd (screen) (TNFR1 [1]) [nM]	apparent Kd (screen) (TNFR1 [2]) [nM]
B21	6.43	–
B22	1.54	–
B23	0.49	–
B24	0.49	–
B25	22.2	–
B26	0.49	–
B27	0.869	–
B28	3	–
B29	0.956	–
B30	6.43	–
B31	0.446	–
B32	0.718	–
B33	13.8	–
B34	1.4	–
B35	13.8	–
B36	0.956	–
B37	1.05	–
B38	0.593	–
B39	2.48	–
B40	3.99	–

Binder	apparent Kd (screen) (TNFR1 [1]) [nM]	apparent Kd (screen) (TNFR1 [2]) [nM]
B41	0.405	–
B42	7.07	–
B43	–	0.718
B44	–	0.653
B45	–	0.539
B46	–	2.25
B47	–	0.593
B48	–	0.277
B49	–	0.79
B50	–	0.869
B51	–	2.48
B52	–	1.86
B53	–	7.78
B54	–	0.956
B55	–	12.5
B56	–	0.446
B57	–	0.79
B58	–	1.05
